# Molecular target: the molecule itself
# Assay: crystal structure; sitting-drop vapor diffusion at 20 °C; optimized crystals from 2.4 M ammonium sulfate, 0.1 M citric acid pH 3.5; space group P3(1)21; 2.8 Å; apo form; dimer in the asymmetric unit
protein,measurement,value
"Saccharomyces cerevisiae phosphoserine aminotransferase (enzyme, S. cerevisiae, UniProt P33330 1-395, looked up, Phosphoserine aminotransferase (PSAT) of S. cerevisiae, encoded by SER1; full-length gene amplified from genomic DNA and cloned into pET28a; residues 1-395 (large domain 54-293, small domain 294-395); apo form without PLP; residues 1-53, 218-220 and 268-271 not modelled in the crystal structure; they may come from different strains; also called ScPSAT; PSAT; source: E. coli BL21 (DE3) Star, …) MSLEREEPQHFGAGPAQMPTPVLQQAAKDLINFNDIGLGIGEISHRSKDATKVIEDSKKHLIELLNIPDTHEVFYLQGGGTTGFSSVATNLAAAYVGKHGKIAPAGYLVTGSWSQKSFEEAKRLHVPAEVIFNAKDYNNGKFGKIPDESLWEDKIKGKAFSYVYLCENETVHGVEWPELPKCLVNDPNIEIVADLSSDILSRKIDVSQYGVIMAGAQKNIGLAGLTLYIIKKSILKNISGASDETLHELGVPITPIAFDYPTVVKNNSAYNTIPIFTLHVMDLVFQHILKKGGVEAQQAENEEKAKILYEALDANSDFYNVPVDPKCRSKMNVVFTLKKDGLDDQFLKEAAARHLTGLKGHRSVGGFRASIYNALSVKAVQNLVDFIKEFAEKNA",stoichiometry N,2
